Results on ten sequences are retold here after the DeepSol protein solubility set.

The data set is described as follows: soluble on expression in E. coli; label from the status in PepcDB or PDB records.
With “MSDKKVFILSGARTPIGAYRGSFANFGAVELGTVAAKAAIERSGVAPEKIEEVIGGCVLPAGLGQNVTRQISLSAGLPVTTQAVTVNKVCSSSMKALVTAAVEIKAGYYDTILVVGTENMSQVPFYVPRGEIPFGGIQMTDGISKDGLEDIKEKGPMGLCAEKTVKDYGITREEQDAYAIESYKKASNAWSSEKFSEEVVPVSVKTSRSEVVITEDEEYKKLIESKVSSLKPVFVRDGTGTITPANASSLNDGAVATVVVGENALPQGAHPLAELVAFAEAGRAPIDFTVAPVDAVRLLLKKSGLQVSDIALWELNEAFAVTVLAFIKELNIEPSVVNVKGGAVAIGHPLGMSGLRIVNSLAYSLAPGQLGVAAICNGGGEATAVLIKKL”, the “soluble on expression in E. coli” value is “not soluble”.
For “GPLGSAQTLQMEIPNFGNSILECLNEQRLQGLYCDVSVVVKGHAFKAHRAVLAASSSYFRDLFNNSRSAVVELPAAVQPQSFQQILSFCYTGRLSMNVGDQDLLMYTAGFLQIQEIMEKGTEFFLKVSS”, the “soluble on expression in E. coli” value is listed as “soluble”.
In the case of “MKNVLILGAGGQIARHVINQLADKQTIKQTLFARQPAKIHKPYPTNSQIIMGDVLNHAALKQAMQGQDIVYANLTGEDLDIQANSVIAAMKACDVKRLIFVLSLGIYDEVPGKFVEWNNAVIGEPLKPFRRAADAIEASGLEYTILRPAWLTDEDIIDYELTSRNEPFKGTIVSRKSVAALITDIIDKPEKHIGENIGINQPGTDGDKPFFM” it was “soluble”; in that of “MLNPNKWLDVKKMLPRLAQKQWYAKTRYGYARGGETVHFVQNVRRYYDILTWVTQPLEHHHHHH”, “not soluble”; in that of “MNDVVLSCKNVSKKYTEFKTDIAILKDVNLEIKKGEKVAILGLSGSGKTTLLNVLGGLDKCSAGEVYLMGERFDNQSVNKRAKMRNKHLGFIYQLHHLLPEFTAIENVMIPLAITKKYTKKESIKLANEILKKVGLDHRADHKPAELSGGERQRVAIARALVTNPNCILADEPTGNLDSQRSESIFALMQQLSDDFGTSFVIVTHDEKLASRMNKIYRLVDGELELVINSN”, “not soluble”.
Next, “MGSDKIHHHHHHMDGEGMSVGHYENFPVGSLILPRRLRKPVHAVYAFARTADDMADEGSMPSEARLSGLEGLRRELDVLASGGRSAHPLIARLDAEAVVPFGLDLQPFYDLLSAFSQDVVKTRYAHFGDLTDYCRRSANPVGRIMLALYGKTDAVCVAQSDGICTALQLVNFWQDVAVDWQKGRVYIPQDDLLKFGVSEEQIAAGRADAAFQRLMAYECRRAFRMLKAGSPLARELKGRIGLELRMIVLGAQLILQKLDACRYDVFAQRPVLDKKDWLIMLKRALWK”: “not soluble”.
Next, “MSLNETKQFIKRHLFSARWLVRNLQQRYSTIERIAEFLAVNQYEFFTQPDGQLKPLTMKTIADALELHESTIARTVSNKYINSPKGIFSLRSFFTTKYTSEEGEDLSAKTVKEAILEIISGENKLRPFSDEKISEFLKSKGITCARRTVAKYRQALDLGNTQQRKKFHQSEGHHHHHH”: “soluble”.
As to “MGELIEGVWHPNWYDTASNGGRFVRSRARFRNWITADGSPGPSGEGGFPAEAGRYHLYVAHACPWAHRTMIFRALKDLAPLIDVSVVHPEMLEDGWTFDRSFPGATGDRLYGLAFLREIYLKADPGISARVTVPVLWDRKRETIVSNESAEIIRMFNAAFDHLTGNRVDFLPEGDLAEIDRLNDRIYGTVNNGVYRAGFATTQEAYDEAAAPLFETLDWLEERLATRRYLVGDRLTEADWRLFTTLVRFDKVYHTHFKCNRRQIVQYPNLWGWLRELWQVPGVAETVHFDHIVRHYYFSHDTINPHRIVPLTPDPDFAAPHGRDQLFQASRLR”, the “soluble on expression in E. coli” value is listed as “not soluble”.
Next, “MRATVSGKTTTILPLLSKLIVIVIKSTSIHCSTLTSSGLFDSTAPRVFKNLVNYGGDMWFYMKPYPSNGKSGSQQMENVYQGLKSAQIKFSHITQHGISVQFFTSQSNWHSITNNNRSFSSYKLWWAHTNGAGNGGATSPNFEGFVSFGGWTSSSLVGKEYARQVQECGVTVNKYVYVK”: “not soluble”.
In the case of “MGSDKIHHHHHHMIKNNRVYGIIGVGAYMANFNADLSGYPKTTTNNDIFGSDKALKYPMKRMWLIEGDKVFYIKSMTIAKSKKDKEMEILQPKDLIERYEDLFGKEWDANLTVKDVAKDLFSTVDIMNFGATFTGSESESKTAKKKIGHNISITGAVQINQGFNLYEKTNVLVQDILSPFRNPNDKSEDKTATSIGTKIVTDEAHYVYSFSVNPANYADYLGLIDGFEGYTTEAYEKFKRAARVATTAFNTNSKSGCENELALFIELKEDSKLFLANLDRYVEVRKKEKQTLYDLSKLAEIIAPQQEEIQSIELFHNPISVEVNYGSLPCTVNSIF” it was “not soluble”.
